In patent publication US20230151340A1, “PLASTIC DEGRADING FUSION PROTEINS AND METHODS OF USING THE SAME” (Alliance for Sustainable Energy, LLC, priority 2020, published 2023) one finds Km, Vmax and kcat/Km data, which are given here for two proteins.

Substrate in series [1]: O=C(O)c1ccc(C(=O)OCCO)cc1
Nature of the series: Michaelis-Menten kinetics of MHETase and variants (substrate inhibition model). The following applies: other: MHET 10-250 μM, 5 nM enzyme, pH 7.5, 30° C. It is filed as biochemical, Comamonas thiooxydans.

Substrate in series [2]: O=C(O)c1ccc(C(=O)OCCO)cc1
Kind of series: purified protein, by the assay type. Particulars: other: MHET 10-250 μM, 5 nM enzyme, pH 7.5, 30° C., substrate inhibition model.

B1: Comamonas thiooxydans MHETase (putative MHETase, Genbank WP_080747404.1), C-terminal His tag (Comamonas thiooxydans) (protein)
chain: HMFVRNADRAKNCMRAPLRVFPLKDTFSAQCANVSVWITSSVPPLRERHMDRRVTRRDLMQTRILLMLIAATGVAACGGDGGSTPAAQNPPLPLASRAACEAFQGNSNSIAWPHRATVVEVATWHEAEPANATAAATPEHCEISGAIARRTGIDGYPYEIKFRLRMPSEWNGRFFMEGGGGTNGSLSAATGSLGGGQTASALSRNFATIATDGGHDNAVNNNPDALGTVAFGMDPQARIDMGYNSYDQVTQAGKAAVAQFYGRAPDKSYFIGCSEGGREGMMLSQRFPSHYDGIVAGAPGYQLPKAGISGAWTTQSLAPAAVGVDAQNVPLINKAFSDVDLHLLSRGILGTCDALDGLSDGIVNDFRACQAAFDPATALNPDTSQPLQCTGAKTPDCLSAAQVTGIKRAMGGPVDSAGAALYNRWAWDPGMSGLNGTSYNQGWRSWWLGSYASSTNNAQRVNGFSARSWLVDFATPPEPMPVTQVAARMMNFNFDTDPPKIRATSGPFTPSSMEWHGATSTNLAAFRDRGGKLMLYHGMSDAAFSALDTADYYERLGAAMPGAAGFARLFLVPGMNHCSGGPGTDRFDMLTPLVAWVERDKAPDQVSAWAGTPGYFGATARTRPLCPYPQIARYKGSGDINAEASFVCVAPLE
Take B1: in series [1], the Km came to 174.70 ± 4.75 µM, the maximum rate (Vmax) was found to be 12.2 µM/min and the kcat/Km turned out to be 230000 M⁻¹ s⁻¹.

B2: Ideonella sakaiensis 201-F6 MHETase (Is MHETase), wild type, Genbank GAP38911.1, C-terminal His tag (DNA SEQ ID NO: 1) (Pseudideonella sakaiensis) (protein)
chain: CAGGGSTPLPLPQQQPPQQEPPPPPVPLASRAACEALKDGNGDMVWPNAATVVEVAAWRDAAPATASAAALPEHCEVSGAIAKRTGIDGYPYEIKFRLRMPAEWNGRFFMEGGSGTNGSLSAATGSIGGGQIASALSRNFATIATDGGHDNAVNDNPDALGTVAFGLDPQARLDMGYNSYDQVTQAGKAAVARFYGRAADKSYFIGCSEGGREGMMLSQRFPSHYDGIVAGAPGYQLPKAGISGAWTTQSLAPAAVGLDAQGVPLINKSFSDADLHLLSQAILGTCDALDGLADGIVDNYRACQAAFDPATAANPANGQALQCVGAKTADCLSPVQVTAIKRAMAGPVNSAGTPLYNRWAWDAGMSGLSGTTYNQGWRSWWLGSFNSSANNAQRVSGFSARSWLVDFATPPEPMPMTQVAARMMKFDFDIDPLKIWATSGQFTQSSMDWHGATSTDLAAFRDRGGKMILYHGMSDAAFSALDTADYYERLGAAMPGAAGFARLFLVPGMNHCSGGPGTDRFDMLTPLVAWVERGEAPDQISAWSGTPGYFGVAARTRPLCPYPQIARYKGSGDINTEANFACAAPP
As for B2, the Km in series [2] came to 23.17 ± 1.65 µM.
